Measured values reported in patent US20180346912, “METHOD FOR STABILIZING DNA APTAMERS” (TAGCYX BIOTECHNOLOGIES, published 2018).

Molecular target: vWF A1 domain (UniProt P04275 P04275:1277-1453)
Test: competition; EMSA competition vs 32P-ARC1172(wt) (=1.00), PBS, 0.1 mg/mL BSA, 37 C
Details: tags: U-Protein Express BV
Procedure: In order to examine each prepared nucleic acid for its binding to vWF A1 domain, competition with ARC1172 reported as an aptamer binding to vWF A1 domain was tested using each variant nucleic acid. In 20 μL of a reaction solution (1× PBS and 0.1 mg/mL BSA). ARC1172 labeled with [γ-³²P]ATP (final concentration: 100 nM), each unlabeled nucleic acid (ARC1172(wt), ARC1172(wt)-iT, ARC1172-F, ARC 1172-F-iT, and ARC1172-G) (final concentration: 100 nM), and vWF A1 domain (100 nM, U-Protein Express BV) were mixed and incubated at 37° C. for 30 minutes. Then, 25% glycerol containing bromophenol blue was added thereto at a final glycerol concentration of 5%. Labeled ARC1172(wt) bound to vWF A1 domain was separated from labeled ARC1172 in a free form by 10% non-denaturing polyacrylamide gel electrophoresis. The gel was dried and visualized using Bio Image Analyzer FLA-7000, and the radioactivity was measured. The gel shift rate, the inhibition rate, and the relative binding rate were calculated in accordance with Example 2.

Sequence of vWF A1 domain (P04275 1277-1453, one chain of several): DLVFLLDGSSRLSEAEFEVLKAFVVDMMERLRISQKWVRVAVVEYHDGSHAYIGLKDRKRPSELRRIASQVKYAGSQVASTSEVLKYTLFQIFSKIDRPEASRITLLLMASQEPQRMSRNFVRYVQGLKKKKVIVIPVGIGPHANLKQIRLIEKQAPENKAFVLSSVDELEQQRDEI

Binder	binding signal (internal mini-hairpin)	further results
GGCGTGCAGTGCCGAAGGCCGTGCGGTGCCTCCGTCACGCC (ssDNA, 3' idT) [ARC1172-F-iT]	1.43	–
GGCGTGCAGTGCCTTCGGCCGTGCGGTGCCTCCGTCACGCC (ssDNA, 3' idT) [ARC1172(wt)-iT]	–	binding signal: 1.12
GGCGTGCAGTGCCGAAGGCCGTGCGGTGCCTCCGTCACGCC (ssDNA) [ARC1172-F]	1.37	–
GGCGTGCAGTGCCGAAGGCCGTGCGGTGCCTCCGTCACGCCCGCGAAGCG (ssDNA) [ARC1172-G]	–	binding signal (internal and 3' mini-hairpins): 1.61
